T1: human MUC18 on human melanoma cell lines (human, UniProt P43121 24-646)
T1 construct: whole, on cells; also called MCAM; CD146
T1 sequence (looked up): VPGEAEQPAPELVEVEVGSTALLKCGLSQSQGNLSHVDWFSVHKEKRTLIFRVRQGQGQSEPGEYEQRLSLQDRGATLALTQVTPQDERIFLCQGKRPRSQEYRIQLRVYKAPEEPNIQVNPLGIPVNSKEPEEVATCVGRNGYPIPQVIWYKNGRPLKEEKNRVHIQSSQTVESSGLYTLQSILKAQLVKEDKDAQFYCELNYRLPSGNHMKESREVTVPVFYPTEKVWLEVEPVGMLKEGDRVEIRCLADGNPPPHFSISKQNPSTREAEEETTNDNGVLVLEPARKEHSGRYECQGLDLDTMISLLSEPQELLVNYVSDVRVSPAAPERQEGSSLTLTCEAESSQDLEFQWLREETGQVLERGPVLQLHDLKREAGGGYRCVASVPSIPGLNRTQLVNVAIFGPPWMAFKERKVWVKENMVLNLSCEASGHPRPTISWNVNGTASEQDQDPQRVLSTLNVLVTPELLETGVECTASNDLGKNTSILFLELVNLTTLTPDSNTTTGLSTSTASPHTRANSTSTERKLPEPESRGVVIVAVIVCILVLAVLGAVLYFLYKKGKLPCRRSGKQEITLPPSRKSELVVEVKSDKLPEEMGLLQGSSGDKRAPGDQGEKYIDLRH

B1: mouse MUC18 (melanoma cell adhesion molecule) (receptor, UniProt Q8R2Y2 24-648, looked up)
chain: VPGEEKQPVPTPDLVEAEVGSTALLKCGPSRASGNFSQVDWFLIHKERQILIFRVHQGKGQREPGEYEHRLSLQDSVATLALSHVTPHDERMFLCKSKRPRLQDHYVELQVFKAPEEPTIQANVVGIHVDRQELREVATCVGRNGYPIPQVLWYKNSLPLQEEENRVHIQSSQIVESSGLYTLKSVLSARLVKEDKDAQFYCELSYRLPSGNHMKESKEVTVPVFYPAEKVWVEVEPVGLLKEGDHVTIRCLTDGNPQPHFTINKKDPSTGEMEEESTDENGLLSLEPAEKHHSGLYQCQSLDLETTITLSSDPLELLVNYVSDVQVNPTAPEVQEGESLTLTCEAESNQDLEFEWLRDKTGQLLGKGPVLQLNNVRREAGGRYLCMASVPRVPGLNRTQLVSVGIFGSPWMALKERKVWVQENAVLNLSCEASGHPQPTISWNVNGSATEWNPDPQTVVSTLNVLVTPELLETGAECTASNSLGSNTTTIVLKLVTLTTLIPDSSQTTGLSTLTVSPHTRANSTSTEKKLPQPESKGVVIVAVIVCTLVLAVLGAALYFFYKKGKLPCGRSGKQEITLPPTRKSEFVVEVKSDKLPEEMALLQGSNGDKRAPGDQGEKYIDLRH
notes: whole, on cells; Present on B16 melanoma cells before and after co-culture with B-1 lymphocytes; In the immunocapture assay it was captured from cell membrane extracts by anti-MUC18 antibody; In Western blot and co-IP it came from cell membrane extracts; also called MCAM; native mouse MUC18
B2: H111-S120 phage (phage clone displaying the mouse MUC18-derived peptide HDERMFLCKS, residues H111-S120 of MUC18) (peptide)
peptide: HDERMFLCKS
notes: also called MUC18-derived phage; MUC18-derived (H111-S120) phage
B3: H111-S120 phage with Lys119 mutated (alanine scanning) (peptide)
peptide: HDERMFLCAS
notes: Numbering counts on mouse MUC18
B4: H111-S120 phage with Arg114 mutated (alanine scanning) (peptide)
peptide: HDEAMFLCKS
notes: as for B3
B5: H111-S120 phage with Cys118 mutated (alanine scanning) (peptide)
peptide: HDERMFLAKS
notes: as for B3
B6: H111-S120 phage with Ser120 mutated (alanine scanning) (peptide)
peptide: HDERMFLCKA
notes: as for B3
B7: CLFMRLAWC-phage (phage displaying the cyclic peptide CLFMRLAWC) (peptide)
peptide: CLFMRLAWC
modifications: disulfide 1-9 (inferred); also: displayed on phage
notes: also called phage clone displaying the peptide motif Arg-Met-Phe-Leu

Series [1] deals with the molecule itself. Put plainly: conclusion drawn from phage binding, immunocapture, antibody inhibition and shRNA experiments.
Series [2] has as its target T1, human MUC18 on human melanoma cell lines. Put plainly: phage binding to a panel of 8 human melanoma cell lines.
The target in series [3] is B1. Kind of series: phage binding to B16 melanoma cells post versus pre co-culture with B-1 lymphocytes.
The target in series [4] is B1. Kind of series: alanine-scanning phage binding to melanoma cells.
The target of series [5] is B1. Put plainly: phage binding (relative TU) to B16 melanoma cells post versus pre co-culture with B-1 lymphocytes.
For series [6], the target named is B1. Kind of series: phage binding (relative TU) to B16 melanoma cells post co-culture with B-1 lymphocytes.

Bridge positions count the residues as written; N and C are the ends. Ends that are not written are not given here.

For B1, the binding result in series [1] was “binds”.

Turning to B2, the binding result in series [2] is listed as “binds”. The “fold increase in phage binding relative to baseline binding to melanoma cells pre co-culture with B-1 lymphocytes” value in series [3] came out at 2.5 fold. Regarding B3, in series [4], the binding result is listed as “no binding”.

As to B4, the binding result in series [4] is reported as “no binding”. B5: the binding result in series [4] is given as “no binding”.

Consider B6, for which, in series [4], the binding result is recorded as “no binding”.

For B7, the “fold increase in phage binding relative to melanoma cells without co-culture with B-1 lymphocytes” value in series [5] was approximately 12 fold. The “fold increase in phage binding relative to control insertless phage” value in series [6] was approximately 20 fold.
